Measured values: patent US20240207421A1, “NERVE TARGETING PEPTIDES AND METHODS OF USE” (ALUME BIOSCIENCES, INC., priority 2020, published 2024)

Target: Laminin 421/521
Assay: phage display, NGS count

Count | Binder
32 | TLKAGTRANDGV
40 | GSTTHPHFGLPG
43 | GAMMNSNNLVAR
38 | TFAAAQAELIMV
31 | NHDQGSLTRWRS
40 | SNPKHVSSLGQM
36 | DVIHSSRGAYFE
33 | HSTYAPG
31 | CSSQAKRSC
35 | MTNSGAK
38 | GHRTLVTSERYL
30 | VPSYILR
30 | WRSPLTT
35 | LGHQNGGRADMW
36 | NWTHLGVARLQP
31 | CQTSGHHQC
40 | CLKDTHLNC
37 | SLNTTWVSPMMK
36 | WQWRSTELGYRY
31 | SLLSVVNTSSKS
34 | VYRNGGGLPLTA
30 | LGYGQGTPHRSN
40 | WGANTTGRTHGG
35 | DWTQVRVTNWFL
32 | NDTGRHASGISK
47 | VPQIRIK
45 | CNHLTQKLC

Count | Binder
31 | VVPSWPSVHRPP
38 | LGPSTQGAGQTR
38 | AQRMNQA
45 | ALGGEPRKAYQR
35 | WAYTDYM
42 | CWSGNSRSC
47 | GDLLLKR
38 | WEEHRVEILPDV
42 | FPLKIRT
42 | AQGVWWSEWFAP
43 | CTGRISKHC
37 | QTFHEYLNPARG
40 | CKWTQLWGC
37 | DIMKSPRSNLRS
32 | QALRTNYSPLNS
32 | CHNADNNGC
34 | ALPWQSGVHGTK
35 | ALKIGPETTIYM
30 | TAPRWTQ
30 | QTFGYSMFNVRT
40 | GWIQDTFVLGRS
31 | CTAWTRQEC
32 | LPMLRHS
44 | QTLQTRH
34 | TFGSGRSMPIQY
38 | GDAQILM
42 | LARSSIMAANNV

Count | Binder
40 | ANRYLAS
40 | QGHPFIY
42 | CFQPKMNSC
31 | WGWNGANMSPRG
45 | CTSKLARHC
47 | AWNGNRS
36 | WSPANGWRHQTI
30 | QGWEFQVPARHS
36 | SYDGTMLKQVRL
33 | CGETTAGKC
31 | GPMLKNLSDAVT
37 | CTPRSATLC
33 | QINWKQADKNAD
44 | LLAGPFR
43 | AKTQAPSNWSGV
37 | CLHNGQRSC
47 | ADMPQMTLKYGV
31 | GGWQSLWDKPEH
31 | EYVKFSHSPRTY
43 | GGGYHIFGPLVT
36 | AHAAGRDMRQGT
40 | GQPRNIHLPGTH
44 | HSFLGAR
43 | CSVWNSGNC
30 | RNLHYPLNHPFM
